Here are results for seven molecules from article doi:10.1101/2020.09.22.307744 (bioRxiv, 2020).

Like-named read-outs stand apart in the source and are kept apart here.

Common to all, as to experiment: MST
The target of series [1] is Luminal domain of human PERK (PKR-like endoplasmic reticulum kinase), His-tagged (human) (UniProt Q9NZJ5).
Series [2] addresses Luminal domain of human ATF6 (activating transcription factor 6), His-tagged (human) (UniProt P18850).
Series [3] deals with Luminal domain of human IRE1α (inositol-requiring enzyme 1α), His-tagged (human) (UniProt O75460).
Series [4] has as its target Human recombinant GRP78 (BiP, binding immunoglobulin protein) (human, UniProt P11021 19-654).
Series [5] concerns the molecule itself.
Series [6] deals with the molecule itself. The source holds these as a separate data set.
Series [7] deals with the molecule itself. The source holds these as a separate data set.

Chain of Human recombinant GRP78 (BiP, binding immunoglobulin protein) (P11021 19-654): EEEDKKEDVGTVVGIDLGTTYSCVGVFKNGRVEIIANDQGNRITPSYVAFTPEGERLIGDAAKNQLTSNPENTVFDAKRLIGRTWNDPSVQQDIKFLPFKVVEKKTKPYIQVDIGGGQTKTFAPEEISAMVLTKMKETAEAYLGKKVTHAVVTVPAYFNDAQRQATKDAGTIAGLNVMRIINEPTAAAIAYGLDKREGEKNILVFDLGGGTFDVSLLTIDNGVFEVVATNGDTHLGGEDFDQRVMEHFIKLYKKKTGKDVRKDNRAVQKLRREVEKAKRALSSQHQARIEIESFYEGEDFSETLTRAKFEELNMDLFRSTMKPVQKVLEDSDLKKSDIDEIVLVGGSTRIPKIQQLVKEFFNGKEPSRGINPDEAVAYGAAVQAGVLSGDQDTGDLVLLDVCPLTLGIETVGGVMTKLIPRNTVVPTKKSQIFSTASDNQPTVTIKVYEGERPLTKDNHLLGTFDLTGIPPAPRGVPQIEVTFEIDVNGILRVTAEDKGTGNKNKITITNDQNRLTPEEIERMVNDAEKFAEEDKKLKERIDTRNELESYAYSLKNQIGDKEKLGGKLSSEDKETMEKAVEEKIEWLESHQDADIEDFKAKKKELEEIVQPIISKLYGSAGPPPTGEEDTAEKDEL

Turning to “C-terminal domain of human MANF (C-MANF), E.coli produced (domain or fragment)”, the results for the Kd in series [1], in series [2] and in series [3] were 1.4 µM, 1.3 µM and 0.241 µM, respectively.

In series [3], “MANF K128A C130S, recombinant human mutant protein (from UniProt P55145 25-182) (natural protein)” had a Kd of 0.055 µM.

For the molecule “C-terminal domain of human MANF (C-MANF), chemically synthesized (domain or fragment)”, the Kd in series [1] was 0.0076 µM; in series [2], 0.0098 µM; in series [3], 0.0095 µM.

For the molecule “Mesencephalic astrocyte-derived neurotrophic factor (MANF), recombinant human (from UniProt P55145 25-182) (natural protein)”, the Kd was 0.384 µM in series [1], 0.347 µM in series [2] and 0.0947 µM in series [3].

B1: Luminal domain of human PERK (PKR-like endoplasmic reticulum kinase), His-tagged (domain or fragment, UniProt Q9NZJ5 30-514, looked up)
chain: AGRARGLPAPTAEAAFGLGAAAAPTSATRVPAAGAVAAAEVTVEDAEALPAAAGEQEPRGPEPDDETELRPRGRSLVIISTLDGRIAALDPENHGKKQWDLDVGSGSLVSSSLSKPEVFGNKMIIPSLDGALFQWDQDRESMETVPFTVESLLESSYKFGDDVVLVGGKSLTTYGLSAYSGKVRYICSALGCRQWDSDEMEQEEDILLLQRTQKTVRAVGPRSGNEKWNFSVGHFELRYIPDMETRAGFIESTFKPNENTEESKIISDVEEQEAAIMDIVIKVSVADWKVMAFSKKGGHLEWEYQFCTPIASAWLLKDGKVIPISLFDDTSYTSNDDVLEDEEDIVEAARGATENSVYLGMYRGQLYLQSSVRISEKFPSSPKALESVTNENAIIPLPTIKWKPLIHSPSRTPVLVGSDEFDKCLSNDKFSHEEYSNGALSILQYPYDNGYYLPYYKRERNKRSTQITVRFLDNPHYNKNIRKKD
modifications: Monolith His-Tag Labeling Kit RED-tris-NTA dye on the His-tag
Consider B1, for which the Kd in series [4] came out at 0.0141 µM.

B2: Luminal domain of human ATF6 (activating transcription factor 6), His-tagged (domain or fragment, UniProt P18850 399-670, looked up)
chain: EQDSRRMNPSVSPANQRRHLLGFSAKEAQDTSDGIIQKNSYRYDHSVSNDKALMVLTEEPLLYIPPPPCQPLINTTESLRLNHELRGWVHRHEVERTKSRRMTNNQQKTRILQGALEQGSNSQLMAVQYTETTSSISRNSGSELQVYYASPRSYQDFFEAIRRRGDTFYVVSFRRDHLLLPATTHNKTTRPKMSIVLPAININENVINGQDYEVMMQIDCQVMDTRILHIKSSSVPPYLRDQQRNQTNTFFGSPPAATEATHVVSTIPESLQ
modifications: glycosylated (PNGase F assay); Monolith His-Tag Labeling Kit RED-tris-NTA dye on the His-tag
On to B2, for which the Kd in series [4] is 0.021 µM.

B3: Luminal domain of human IRE1α (inositol-requiring enzyme 1α), His-tagged (domain or fragment, UniProt O75460 19-443, looked up)
chain: IFGSTSTVTLPETLLFVSTLDGSLHAVSKRTGSIKWTLKEDPVLQVPTHVEEPAFLPDPNDGSLYTLGSKNNEGLTKLPFTIPELVQASPCRSSDGILYMGKKQDIWYVIDLLTGEKQQTLSSAFADSLCPSTSLLYLGRTEYTITMYDTKTRELRWNATYFDYAASLPEDDVDYKMSHFVSNGDGLVVTVDSESGDVLWIQNYASPVVAFYVWQREGLRKVMHINVAVETLRYLTFMSGEVGRITKWKYPFPKETEAKSKLTPTLYVGKYSTSLYASPSMVHEGVAVVPRGSTLPLLEGPQTDGVTIGDKGECVITPSTDVKFDPGLKSKNKLNYLRNYWLLIGHHETPLSASTKMLERFPNNLPKHRENVIPADSEKKSFEEVINLVDQTSENAPTTVSRDVEEKPAHAPARPEAPVDSMLKD
modifications: labelled copy: Monolith His-Tag Labeling Kit RED-tris-NTA dye on the His-tag (legends also say Alexa647-labeled through His-tag)
For the molecule B3, the dissociation constant Kd was 0.0073 µM in “MST [5]”, 0.04 µM in “MST [6]”, 0.119 µM in series [4] and 0.0027 µM in “MST [7]”.

A word on the Kd: it is the equilibrium constant for the complex coming apart.
